Data taken from patent publication US20220127355A1 (INTEGRAL MOLECULAR, published 2022).

Key:
Claudin 6 (human) [1] = molecular target: T1, Claudin 6 (human) (human, UniProt P56747 1-220); experiment: biosensor (Forte Octet), intact claudin in virus-like particles (lipoparticles)
T1 construct: Expressed on transfected HEK-293T cells or naturally on PA-1 cells for flow cytometry; For the Octet KD values it was the intact protein embedded in virus-like particles (lipoparticles); also called hsCLDN6; CLDN6
T1 chain: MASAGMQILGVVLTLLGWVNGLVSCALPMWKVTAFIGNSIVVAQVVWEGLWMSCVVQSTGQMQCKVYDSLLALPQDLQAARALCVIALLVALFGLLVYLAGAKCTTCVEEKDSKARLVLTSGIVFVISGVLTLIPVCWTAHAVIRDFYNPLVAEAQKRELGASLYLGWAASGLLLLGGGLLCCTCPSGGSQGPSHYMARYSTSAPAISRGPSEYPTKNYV
Procedure: Affinity of various antibodies against CLDN6 as compared to CLDN9, CLDN3, and CLDN4 was measured using a biosensor. Biosensor affinity measurement of the various antibodies against the proteins was determined using a Forte Octet, which was used for biosensor measurements, using intact claudin proteins embedded in virus-like particles (lipoparticles). The KD for different antibodies is shown below.

A153S = molecular target: T2, A153S; experiment: Shotgun Mutagenesis epitope mapping; mean (range), % of wild-type Claudin 6
T2 construct: Shotgun Mutagenesis mutant; also called Claudin 6 A153S
T2 chain: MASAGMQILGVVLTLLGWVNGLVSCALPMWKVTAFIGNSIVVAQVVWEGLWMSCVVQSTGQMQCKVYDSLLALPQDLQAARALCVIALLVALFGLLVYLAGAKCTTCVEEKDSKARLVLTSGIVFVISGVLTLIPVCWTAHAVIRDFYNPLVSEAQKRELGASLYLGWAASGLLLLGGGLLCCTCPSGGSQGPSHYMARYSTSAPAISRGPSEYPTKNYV

Q156A = molecular target: T3, Q156A; experiment: as above
T3 construct: Shotgun Mutagenesis mutant; also called Claudin 6 Q156A
T3 chain: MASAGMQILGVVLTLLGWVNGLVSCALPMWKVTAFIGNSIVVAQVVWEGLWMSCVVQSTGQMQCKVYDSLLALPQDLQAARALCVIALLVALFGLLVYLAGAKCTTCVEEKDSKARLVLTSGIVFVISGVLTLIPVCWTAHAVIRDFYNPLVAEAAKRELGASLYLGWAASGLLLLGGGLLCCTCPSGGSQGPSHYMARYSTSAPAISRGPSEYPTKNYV

T33A = molecular target: T4, T33A; experiment: as above
T4 construct: Shotgun Mutagenesis mutant; also called Claudin 6 T33A
T4 chain: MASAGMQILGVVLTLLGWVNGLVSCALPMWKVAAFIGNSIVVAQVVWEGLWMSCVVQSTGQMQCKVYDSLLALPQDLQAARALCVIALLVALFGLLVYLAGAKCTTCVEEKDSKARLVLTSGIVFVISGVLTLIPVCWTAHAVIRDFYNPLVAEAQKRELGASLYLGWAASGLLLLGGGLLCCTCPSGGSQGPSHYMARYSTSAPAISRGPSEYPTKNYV

N38A = molecular target: T5, N38A; experiment: as above
T5 construct: Shotgun Mutagenesis mutant; also called Claudin 6 N38A
T5 chain: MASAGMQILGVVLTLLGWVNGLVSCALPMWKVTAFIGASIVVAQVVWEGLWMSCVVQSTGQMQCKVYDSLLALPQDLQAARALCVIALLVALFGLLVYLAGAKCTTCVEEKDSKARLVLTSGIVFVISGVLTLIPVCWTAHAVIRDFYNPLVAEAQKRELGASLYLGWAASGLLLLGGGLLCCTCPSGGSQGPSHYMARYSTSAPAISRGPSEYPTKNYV

Y67A = molecular target: T6, Y67A; experiment: as above
T6 construct: Shotgun Mutagenesis mutant; also called Claudin 6 Y67A
T6 chain: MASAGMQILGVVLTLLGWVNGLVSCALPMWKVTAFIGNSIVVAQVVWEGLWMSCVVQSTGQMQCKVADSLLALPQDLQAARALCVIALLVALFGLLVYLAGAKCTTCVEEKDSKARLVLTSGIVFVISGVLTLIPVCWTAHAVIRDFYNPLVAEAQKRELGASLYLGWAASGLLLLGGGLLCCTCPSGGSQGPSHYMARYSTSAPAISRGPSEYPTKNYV

Claudin 3 = molecular target: T7, Claudin 3 (UniProt O15551 1-220); experiment: flow cytometry, HEK-293T cells transiently transfected with the indicated claudin; pUC19 = empty vector control
T7 construct: also called CLDN3
T7 sequence (looked up): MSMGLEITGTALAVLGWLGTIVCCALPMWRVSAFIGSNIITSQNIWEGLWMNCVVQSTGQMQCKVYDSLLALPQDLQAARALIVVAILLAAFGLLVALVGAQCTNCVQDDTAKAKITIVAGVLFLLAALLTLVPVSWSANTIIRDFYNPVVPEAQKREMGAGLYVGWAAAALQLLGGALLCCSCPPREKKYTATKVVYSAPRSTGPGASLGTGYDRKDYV
Procedure: FIG. 2 illustrates the results of a binding assay showing that Claudin 6 MAbs bind to human Claudin 6 preferentially over other Claudin proteins. Human embryonic kidney 293T (HEK-293T) cells were transiently transfected with DNA for the indicated Claudin protein or empty vector along with GFP (pUC) for 22 hours.

Claudin 6 (human) [2] = molecular target: T1, Claudin 6 (human); experiment: flow cytometry, HEK-293T cells transiently transfected with human Claudin 6 (hsCLDN6); pUC = empty vector control
Procedure: FIG. 1 illustrates the results of a binding assay showing that Claudin 6 MAbs bind to human Claudin 6. Human embryonic kidney 293T (HEK-293T) cells were transiently transfected with DNA for human Claudin 6 (hsCLDN6) or empty vector along with GFP (pUC) for 22 hours. Claudin 6 MAbs (IM136, IM171, IM172, and IM173) were added at serial dilutions (0.0-10 μg/mL) and incubated for 90 min with shaking. After a wash step, secondary antibody for detection (allophycocyanin-conjugated mouse anti-human IgG Fc; Southern Biotech) was added and incubated for 30-45 min. Cells were washed, and fluorescence was detected by high-throughput Intellicyt flow cytometry, with gating by graphing forward scatter against side scatter. Data were analyzed in GraphPad Prism software based on the geometric mean of fluorescence intensity for the cell population in each well.

Binder | Kd (Claudin 6 (human) [1]) [nM] | Binding Reactivity (% WT) (A153S) | Binding Reactivity (% WT) (Q156A) | Binding Reactivity (% WT) (T33A) | Binding Reactivity (% WT) (N38A) | Binding Reactivity (% WT) (Y67A) | binding result (Claudin 3) | EC50 (read off the curve) (Claudin 6 (human) [2]) [µg/mL]
IM173 (antibody, V domains shown, Detected with anti-human IgG Fc secondary) VH: AVTLDESGGGLQTPGGALSLVCKASGFTFSSYSMFWVRRAPGKGLEWVAGIDSGSTTFYGSAVKGRATISRDNGQSTVRLQLNNLRAEDTATYYCAKDAYGYCGWSGCSADSIDAWGHGTEVIVSS VL: ALTQPSSVSANPGGTVEITCSGGNNYYGWYQQKSPGSAPVTVIYYNDKRPSDIPSRFSGSKSGSTGTLTITGVQADDEAVYFCGGWDSSGGIFGAGTTLTVL | 0.32 | 113 | 0.9 | 116 | 86 | 28.8 | no binding (tested: log [mAb] about -7.2 M) | ~0.4
IM171 (antibody, V domains shown, Detected with anti-human IgG Fc secondary; also called LM171) VH: AVTLDESGGGLQTPGGALSLVCKASGFDFSSYAMNWVRQAPGKGLEWVAGIGSTGSSTGYGPAVKGRATISRDNGQSTLRLQLNNLRAEDTAIYYCAKSVGNGNSWSGYIATSIDAWGHGTEVIVSS VL: ALTQPSSVSANLGGTVKLTCSGGSSGYGWYQQKSPGSAPVTVIYSNDKRPSDIPSRFSGSLSGSTGTLTITGVQADDEAVYFCGSTDNSYVGIFGAGTTLTVL | 3 | 24 | 102 | 22.8 | 22.4 | 97.2 | no binding (tested: log [mAb] about -7.2 M) | ~0.4
